Measured values as given in IntAct's records for PubMed 29892012.

B1: Transcription factor RFX3 (Homo sapiens), P48380 (parent)
chain: MQTSETGSDTGSTVTLQTSVASQAAVPTQVVQQVPVQQQVQQVQTVQQVQHVYPAQVQYVEGSDTVYTNGAIRTTTYPYTETQMYSQNTGGNYFDTQGSSAQVTTVVSSHSMVGTGGIQMGVTGGQLISSSGGTYLIGNSMENSGHSVTHTTRASPATIEMAIETLQKSDGLSTHRSSLLNSHLQWLLDNYETAEGVSLPRSTLYNHYLRHCQEHKLDPVNAASFGKLIRSIFMGLRTRRLGTRGNSKYHYYGIRVKPDSPLNRLQEDMQYMAMRQQPMQQKQRYKPMQKVDGVADGFTGSGQQTGTSVEQTVIAQSQHHQQFLDASRALPEFGEVEISSLPDGTTFEDIKSLQSLYREHCEAILDVVVNLQFSLIEKLWQTFWRYSPSTPTDGTTITESSNLSEIESRLPKAKLITLCKHESILKWMCNCDHGMYQALVEILIPDVLRPIPSALTQAIRNFAKSLEGWLSNAMNNIPQRMIQTKVAAVSAFAQTLRRYTSLNHLAQAARAVLQNTSQINQMLSDLNRVDFANVQEQASWVCQCDDNMVQRLETDFKMTLQQQSTLEQWAAWLDNVMMQALKPYEGRPSFPKAARQFLLKWSFYSSMVIRDLTLRSAASFGSFHLIRLLYDEYMFYLVEHRVAQATGETPIAVMGEFGDLNAVSPGNLDKDEGSEVESEMDEELDDSSEPQAKREKTELSQAFPVGCMQPVLETGVQPSLLNPIHSEHIVTSTQTIRQCSATGNTYTAV
partner: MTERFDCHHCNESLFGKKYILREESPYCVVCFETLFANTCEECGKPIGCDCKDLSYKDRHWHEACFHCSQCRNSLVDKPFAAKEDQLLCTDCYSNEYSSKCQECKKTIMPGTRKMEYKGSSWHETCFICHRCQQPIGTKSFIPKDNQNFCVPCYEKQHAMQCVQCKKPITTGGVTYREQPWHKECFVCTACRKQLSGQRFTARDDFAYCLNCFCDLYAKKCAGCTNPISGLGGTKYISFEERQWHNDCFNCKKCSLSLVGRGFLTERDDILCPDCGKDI
B2: PDZ and LIM domain protein 1 (Homo sapiens), O00151 (parent)
chain: MTTQQIDLQGPGPWGFRLVGGKDFEQPLAISRVTPGSKAALANLCIGDVITAIDGENTSNMTHLEAQNRIKGCTDNLTLTVARSEHKVWSPLVTEEGKRHPYKMNLASEPQEVLHIGSAHNRSAMPFTASPASSTTARVITNQYNNPAGLYSSENISNFNNALESKTAASGVEANSRPLDHAQPPSSLVIDKESEVYKMLQEKQELNEPPKQSTSFLVLQEILESEEKGDPNKPSGFRSVKAPVTKVAASIGNAQKLPMCDKCGTGIVGVFVKLRDRHRHPECYVCTDCGTNLKQKGHFFVEDQIYCEKHARERVTPPEGYEVVTVFPK
B3: Ligand of Numb protein X 2 (Homo sapiens), Q8N448 (parent)
chain: MGTTSDEMVSVEQTSSSSLNPLCFECGQQHWTRENHLYNYQNEVDDDLVCHICLQPLLQPLDTPCGHTFCYKCLRNFLQEKDFCPLDRKRLHFKLCKKSSILVHKLLDKLLVLCPFSSVCKDVMQRCDLEAHLKNRCPGASHRRVALERRKTSRTQAEIENENGPTLLDPAGTLSPEADCLGTGAVPVERHLTSASLSTWSEEPGLDNPAFEESAGADTTQQPLSLPEGEITTIEIHRSNPYIQLGISIVGGNETPLINIVIQEVYRDGVIARDGRLLAGDQILQVNNYNISNVSHNYARAVLSQPCNTLHLTVLRERRFGNRAHNHSDSNSPREEIFQVALHKRDSGEQLGIKLVRRTDEPGVFILDLLEGGLAAQDGRLSSNDRVLAINGHDLKYGTPELAAQIIQASGERVNLTIARPGKPQPGNTIREAGNHSSSSQHHTPPPYYSRPSSHKDLTQCVTCQEKHITVKKEPHESLGMTVAGGRGSKSGELPIFVTSVPPHGCLARDGRIKRGDVLLNINGIDLTNLSHSEAVAMLKASAASPAVALKALEVQIVEEATQNAEEQPSTFSENEYDASWSPSWVMWLGLPSTLHSCHDIVLRRSYLGSWGFSIVGGYEENHTNQPFFIKTIVLGTPAYYDGRLKCGDMIVAVNGLSTVGMSHSALVPMLKEQRNKVTLTVICWPGSLV
partner: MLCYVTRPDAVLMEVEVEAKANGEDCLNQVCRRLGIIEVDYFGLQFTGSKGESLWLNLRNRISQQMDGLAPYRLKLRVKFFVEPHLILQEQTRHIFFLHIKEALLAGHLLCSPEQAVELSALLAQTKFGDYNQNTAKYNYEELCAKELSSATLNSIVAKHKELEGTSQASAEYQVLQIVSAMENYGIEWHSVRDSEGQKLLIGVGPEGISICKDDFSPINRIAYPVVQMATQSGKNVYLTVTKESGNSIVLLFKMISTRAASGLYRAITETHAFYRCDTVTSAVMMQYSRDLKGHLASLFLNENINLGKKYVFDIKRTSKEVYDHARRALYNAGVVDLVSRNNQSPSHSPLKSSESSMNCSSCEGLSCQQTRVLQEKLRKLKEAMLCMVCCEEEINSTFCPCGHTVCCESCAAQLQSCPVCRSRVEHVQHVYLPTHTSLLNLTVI
B4: Myotubularin-related protein 9 (Homo sapiens), Q96QG7 (parent)
chain: MEFAELIKTPRVDNVVLHRPFYPAVEGTLCLTGHHLILSSRQDNTEELWLLHSNIDAIDKRFVGSLGTIIIKCKDFRIIQLDIPGMEECLNIASSIEALSTLDSITLMYPFFYRPMFEVIEDGWHSFLPEQEFELYSSATSEWRLSYVNKEFAVCPSYPPIVTVPKSIDDEALRKVATFRHGGRFPVLSYYHKKNGMVIMRSGQPLTGTNGRRCKEDEKLINATLRAGKRGYIIDTRSLNVAQQTRAKGGGFEQEAHYPQWRRIHKSIERYHILQESLIKLVEACNDQTHNMDRWLSKLEASNWLTHIKEILTTACLAAQCIDREGASILIHGTEGTDSTLQVTSLAQIILEPRSRTIRGFEALIEREWLQAGHPFQQRCAQSAYCNTKQKWEAPVFLLFLDCVWQILRQFPCSFEFNENFLIMLFEHAYASQFGTFLGNNESERCKLKLQQKTMSLWSWVNQPSELSKFTNPLFEANNLVIWPSVAPQSLPLWEGIFLRWNRSSKYLDEAYEEMVNIIEYNKELQAKVNILRRQLAELETEDGMQESP
partner: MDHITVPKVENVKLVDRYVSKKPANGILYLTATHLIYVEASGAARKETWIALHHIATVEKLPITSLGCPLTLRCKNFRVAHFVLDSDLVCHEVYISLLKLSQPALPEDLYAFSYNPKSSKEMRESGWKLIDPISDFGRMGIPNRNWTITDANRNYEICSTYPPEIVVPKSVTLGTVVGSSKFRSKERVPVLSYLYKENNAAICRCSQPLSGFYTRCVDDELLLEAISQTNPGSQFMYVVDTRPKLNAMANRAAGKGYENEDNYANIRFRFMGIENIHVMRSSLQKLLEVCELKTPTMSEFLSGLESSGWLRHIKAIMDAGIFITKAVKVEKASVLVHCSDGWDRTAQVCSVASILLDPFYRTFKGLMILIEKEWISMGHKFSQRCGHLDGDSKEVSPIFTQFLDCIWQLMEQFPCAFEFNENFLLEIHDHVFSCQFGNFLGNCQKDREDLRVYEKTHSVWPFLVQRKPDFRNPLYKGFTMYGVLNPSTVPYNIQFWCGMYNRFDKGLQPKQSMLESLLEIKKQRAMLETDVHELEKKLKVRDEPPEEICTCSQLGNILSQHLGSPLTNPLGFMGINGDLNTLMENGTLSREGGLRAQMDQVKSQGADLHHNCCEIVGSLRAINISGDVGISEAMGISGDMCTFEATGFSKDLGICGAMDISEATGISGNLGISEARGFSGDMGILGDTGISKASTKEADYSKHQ
B5: Zyxin (Homo sapiens), Q15942 (parent)
chain: MAAPRPSPAISVSVSAPAFYAPQKKFGPVVAPKPKVNPFRPGDSEPPPAPGAQRAQMGRVGEIPPPPPEDFPLPPPPLAGDGDDAEGALGGAFPPPPPPIEESFPPAPLEEEIFPSPPPPPEEEGGPEAPIPPPPQPREKVSSIDLEIDSLSSLLDDMTKNDPFKARVSSGYVPPPVATPFSSKSSTKPAAGGTAPLPPWKSPSSSQPLPQVPAPAQSQTQFHVQPQPQPKPQVQLHVQSQTQPVSLANTQPRGPPASSPAPAPKFSPVTPKFTPVASKFSPGAPGGSGSQPNQKLGHPEALSAGTGSPQPPSFTYAQQREKPRVQEKQHPVPPPAQNQNQVRSPGAPGPLTLKEVEELEQLTQQLMQDMEHPQRQNVAVNELCGRCHQPLARAQPAVRALGQLFHIACFTCHQCAQQLQGQQFYSLEGAPYCEGCYTDTLEKCNTCGEPITDRMLRATGKAYHPHCFTCVVCARPLEGTSFIVDQANRPHCVPDYHKQYAPRCSVCSEPIMPEPGRDETVRVVALDKNFHMKCYKCEDCGKPLSIEADDNGCFPLDGHVLCRKCHTARAQT
partner: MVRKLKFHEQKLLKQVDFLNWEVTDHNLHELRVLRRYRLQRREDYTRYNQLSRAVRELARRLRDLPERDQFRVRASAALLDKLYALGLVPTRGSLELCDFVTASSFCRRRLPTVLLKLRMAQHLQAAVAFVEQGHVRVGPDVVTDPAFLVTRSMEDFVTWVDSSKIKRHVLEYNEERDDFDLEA

Variants of: B1
Conditions: with fhl2_human FHL2, Q14192

Row | effect of a mutation on the interaction | Variant
1 | with no effect | S387C

Variants of: B2
Conditions: with gfap_human GFAP

Row | effect of a mutation on the interaction | Variant
2 | with no effect | A249V

Variants of: B2
Conditions: with actn4_human ACTN4, O43707
Chain of actn4_human ACTN4, O43707 (O43707 whole entry): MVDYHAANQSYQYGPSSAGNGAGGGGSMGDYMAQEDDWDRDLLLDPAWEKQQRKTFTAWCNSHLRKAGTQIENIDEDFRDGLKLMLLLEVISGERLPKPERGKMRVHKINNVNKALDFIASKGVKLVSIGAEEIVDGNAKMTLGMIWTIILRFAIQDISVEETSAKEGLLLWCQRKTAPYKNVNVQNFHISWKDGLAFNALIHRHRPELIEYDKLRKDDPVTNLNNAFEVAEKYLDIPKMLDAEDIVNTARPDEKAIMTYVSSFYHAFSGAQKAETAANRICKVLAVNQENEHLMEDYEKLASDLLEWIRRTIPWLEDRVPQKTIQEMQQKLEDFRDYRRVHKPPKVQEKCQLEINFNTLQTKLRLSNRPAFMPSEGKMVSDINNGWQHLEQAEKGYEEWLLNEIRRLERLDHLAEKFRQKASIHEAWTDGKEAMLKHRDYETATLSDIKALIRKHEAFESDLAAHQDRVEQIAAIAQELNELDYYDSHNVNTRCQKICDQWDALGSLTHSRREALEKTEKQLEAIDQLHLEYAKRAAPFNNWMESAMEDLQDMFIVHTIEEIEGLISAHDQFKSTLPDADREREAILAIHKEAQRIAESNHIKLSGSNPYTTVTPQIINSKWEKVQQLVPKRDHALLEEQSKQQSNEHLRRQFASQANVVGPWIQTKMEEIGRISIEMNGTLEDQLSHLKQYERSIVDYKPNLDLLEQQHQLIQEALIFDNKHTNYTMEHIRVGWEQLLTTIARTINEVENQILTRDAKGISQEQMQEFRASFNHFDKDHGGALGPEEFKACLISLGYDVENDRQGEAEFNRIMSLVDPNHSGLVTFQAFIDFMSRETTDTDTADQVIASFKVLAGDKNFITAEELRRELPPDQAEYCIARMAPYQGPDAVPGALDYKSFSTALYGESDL

Row | effect of a mutation on the interaction | Variant
3 | with no effect | A249V

Variants of: B3
Conditions: with mylip_human MYLIP

Row | effect of a mutation on the interaction | Variant
4 | with no effect | P669A

Variants of: B4
Conditions: with mtmr8_human MTMR8, Q96EF0

Row | effect of a mutation on the interaction | Variant
5 | with no effect | R359S

Variants of: B5
Conditions: with imp3_human IMP3, Q9NV31

Row | effect of a mutation on the interaction | Variant
6 | with no effect | R167G
